Data: patent EP4545563A1 (Foreseen Technology (Beijing) Co., Ltd., dated 2024)

T1: ITGA2-His (human, UniProt P17301 30-1132, limits assumed)
T1 construct: also called ITGA2 protein; not shown: His tag
T1 sequence (looked up): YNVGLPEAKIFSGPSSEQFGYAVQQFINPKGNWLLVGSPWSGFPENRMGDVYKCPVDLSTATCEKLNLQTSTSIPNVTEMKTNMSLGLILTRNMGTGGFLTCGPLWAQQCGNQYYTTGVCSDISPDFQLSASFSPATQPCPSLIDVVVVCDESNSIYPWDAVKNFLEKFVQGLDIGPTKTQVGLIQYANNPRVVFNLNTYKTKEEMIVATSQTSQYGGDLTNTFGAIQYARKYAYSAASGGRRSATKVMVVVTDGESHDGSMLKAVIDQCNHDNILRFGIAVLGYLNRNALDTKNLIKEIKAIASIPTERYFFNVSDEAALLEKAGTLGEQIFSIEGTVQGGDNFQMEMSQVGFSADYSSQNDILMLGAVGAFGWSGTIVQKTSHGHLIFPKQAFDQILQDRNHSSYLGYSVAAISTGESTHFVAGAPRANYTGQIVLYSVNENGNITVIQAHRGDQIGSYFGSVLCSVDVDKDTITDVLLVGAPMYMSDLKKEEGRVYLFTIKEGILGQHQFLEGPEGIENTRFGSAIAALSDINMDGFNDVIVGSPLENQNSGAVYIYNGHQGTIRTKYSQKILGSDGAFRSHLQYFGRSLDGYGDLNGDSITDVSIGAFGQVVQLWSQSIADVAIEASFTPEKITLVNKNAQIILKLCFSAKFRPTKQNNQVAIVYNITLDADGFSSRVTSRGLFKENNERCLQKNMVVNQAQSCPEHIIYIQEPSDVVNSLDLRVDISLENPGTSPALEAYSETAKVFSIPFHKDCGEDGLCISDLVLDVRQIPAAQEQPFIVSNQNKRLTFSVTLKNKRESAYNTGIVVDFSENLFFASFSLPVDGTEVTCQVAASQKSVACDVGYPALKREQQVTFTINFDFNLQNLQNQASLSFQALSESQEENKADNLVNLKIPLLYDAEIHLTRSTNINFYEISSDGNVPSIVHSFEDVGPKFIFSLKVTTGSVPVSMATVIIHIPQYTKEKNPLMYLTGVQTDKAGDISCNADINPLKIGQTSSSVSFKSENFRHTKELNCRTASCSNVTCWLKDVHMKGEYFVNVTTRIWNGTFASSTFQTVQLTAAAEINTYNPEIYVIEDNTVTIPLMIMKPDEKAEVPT

T2: ITGA2 protein on the surface of human tumor cells (HuCCT1, A431) (human, UniProt P17301 30-1181)
T2 construct: whole, on cells; Endogenously expressed on the cell lines; the cell line of each entry is named under assay or readout; also called Integrin alpha-2; ITGA2-positive HuCCT1 cells
T2 sequence (looked up): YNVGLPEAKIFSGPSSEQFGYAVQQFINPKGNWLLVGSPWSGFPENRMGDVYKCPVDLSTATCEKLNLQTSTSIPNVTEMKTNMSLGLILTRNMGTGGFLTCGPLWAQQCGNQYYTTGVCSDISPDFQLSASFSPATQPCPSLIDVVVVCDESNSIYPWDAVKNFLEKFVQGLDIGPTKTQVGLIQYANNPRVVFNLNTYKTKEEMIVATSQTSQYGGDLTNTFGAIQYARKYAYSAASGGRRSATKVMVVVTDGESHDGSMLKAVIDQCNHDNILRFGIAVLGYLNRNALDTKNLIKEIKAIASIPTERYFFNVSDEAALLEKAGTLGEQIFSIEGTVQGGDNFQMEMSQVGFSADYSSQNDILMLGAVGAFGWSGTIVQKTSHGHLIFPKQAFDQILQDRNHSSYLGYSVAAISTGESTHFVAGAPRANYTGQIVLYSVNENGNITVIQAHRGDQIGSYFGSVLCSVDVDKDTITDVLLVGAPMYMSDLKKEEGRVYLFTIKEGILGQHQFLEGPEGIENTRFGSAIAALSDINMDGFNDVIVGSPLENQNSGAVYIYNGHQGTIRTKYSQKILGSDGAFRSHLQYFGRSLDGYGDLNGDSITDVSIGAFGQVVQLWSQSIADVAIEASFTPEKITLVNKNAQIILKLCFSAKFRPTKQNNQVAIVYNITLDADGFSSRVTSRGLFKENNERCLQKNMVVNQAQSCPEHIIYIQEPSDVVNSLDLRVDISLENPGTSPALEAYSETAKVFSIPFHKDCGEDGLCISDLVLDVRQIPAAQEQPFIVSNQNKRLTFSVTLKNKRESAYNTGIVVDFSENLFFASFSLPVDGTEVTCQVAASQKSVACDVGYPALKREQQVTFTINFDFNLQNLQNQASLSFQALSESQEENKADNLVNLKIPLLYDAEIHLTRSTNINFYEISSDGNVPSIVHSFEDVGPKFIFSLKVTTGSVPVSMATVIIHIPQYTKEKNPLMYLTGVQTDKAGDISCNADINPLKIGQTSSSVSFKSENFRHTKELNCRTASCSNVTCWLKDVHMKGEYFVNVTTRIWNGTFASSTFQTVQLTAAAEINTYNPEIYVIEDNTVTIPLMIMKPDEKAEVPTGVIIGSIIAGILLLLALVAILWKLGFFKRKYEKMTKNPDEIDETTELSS


What was measured:
ITGA2-His = biological target: T1, ITGA2-His; test: ELISA, plate coated with 2 ug/mL ITGA2-His, anti-human IgG-Fc-HRP detection
[1] = biological target: T2, ITGA2 protein on the surface of human …; test: flow cytometry on HuCCT1 cells, goat anti-human IgG (H+L) secondary antibody

| EC50 (ITGA2-His) [nM] | EC50 [1] [nM] | Binder |
| --- | --- | --- |
| 12.1 | 34.6 | Humanized antibody FS002-C9 (antibody, human IgG1, kappa, V domains shown, IgG1 heavy chain, kappa light chain) VH: QVQLLESGPGLVKPSQTVSLTCTVSGVSISRGVYSWSWIRQHPGKGLEWIGFIDYNGRTDYNPSLKSRVTISQDTSKNDFSLKLTSVTAADTAIYYCARGLHAFDIWGQGTMVTVSS VL: NIQMTQSPPSLSASVGDRVAITCRASQDISNSLAWYQQKSGQPPKLLLYDVSKLERGVPSRFSGSGSRTDYTLTISSLQPEDFATYYCQQYSSDPTFGQGSKLEFKR |
| 0.087 | 3.63 | Humanized antibody FS002-C153 (antibody, human IgG1, lambda, V domains shown, IgG1 heavy chain, lambda light chain) VH: QVQLQQWGAELVKPGASVKLSCTASGFNIKDTYMHWVKQRPEQGLEWIGRIDPANGNTKYDPKFQGKATITADTSSNTAYLQLSSLTSEDTAVYYCARSYYRYDGYFDVWGAGTMVTVSS VL: QSALTQPASVSGSPGQSITISCTGTSSDVGGYNYVSWYQQHPGKAPKLMIYDVSNRPSGVSNRFSGSKSGNTASLTISGLQAEDEADYYCSSFTTITTRVFGGGTKLTVLG |
| 0.044 | 2.13 | Humanized antibody FS002-C15 (antibody, human IgG1, kappa, V domains shown, IgG1 heavy chain, kappa light chain) VH: QLQLQESGPGLVKPSETLSLTCTVSGGSISSSSYYWGWIRQPPGKGLEWIGSIYYSGSTYYNPSLKSRVTISVDTSKNQFSLKLSSVTAADTAVYYCARLTIFGVVLYWGQGTLVTVSS VL: EIVLTQSPATLSLSPGERATLSCQASQTFSDYLAWYQQKPGQAPRLLIYDASTRATGIPARFSGSGSGTDFTLTISSLEPEDFAVYYCQQRSHWPPGYTFGQGTRVEIKR |
| 0.028 | 0.927 | Humanized antibody FS002-A15 (antibody, human IgG1, kappa, V domains shown, IgG1 heavy chain, kappa light chain) VH: RLQLQESGPGLVKPSQTLSLTCTVSGGSISSGGYYWSWIRQHPGKGLEWIGYIYYSGSTYYNPSLKSRVTISVDTSKNQFSLKLSSVTAADTAVYYCARATIYGYFDYWGQGTLVTVSS VL: EIVLTQSPATLPLSPGERATLSCRASQSVGFYLAWYQQKPGQPPRLLFYDASKRATGIPARFSASGSGTDFTLTISGLEPEDFAVYYCQHRISWPLTFGQGTKVEVKR |
| 0.023 | 0.793 | Vatelizumab (antibody, V domains shown) VH: QVQLQESGPGLVKPSETLSLTCTVSGFSLTNYGIHWIRQPPGKGLEWLGVIWARGFTNYNSALMSRLTISKDNSKNQVSLKLSSVTAADTAVYYCARANDGVYYAMDYWGQGTLVTVSS VL: DFVMTQSPAFLSVTPGEKVTITCSAQSSVNYIHWYQQKPDQAPKKLIYDTSKLASGVPSRFSGSGSGTDYTFTISSLEAEDAATYYCQQWTTNPLTFGQGTKVEIK |
| 0.116 | 2.41 | Humanized antibody FS002-C241 (antibody, human IgG1, lambda, V domains shown, IgG1 heavy chain, lambda light chain) VH: RLQLQESGPGLVKPSETLSLTCTVSGGSISSSSYYWGWIRQPPGKGLEWIGSIYYSGSTYYNPSLKSRVTISVDTSKNQFSLKLSSVTAADTAVYYCARRYSYGRDAFDIWGQGTMVTVSS VL: QSALTQPASVSGSPGQSITISCSGTSSDIGRYNYVSWYQQHPGKAPKLLIFDVSNRPSGVSNRFSGSKSGNTASLTISGLQAEDEADYYCSSYTSTVPYVFGTGTRVAVQG |
| 0.103 | 2.07 | Humanized antibody FS002-C330 (antibody, V domains shown, IgG1 heavy chain, kappa light chain) VH: QLQLQESGPGLVKPSGTLSLTCAVSGGSISSSNWWSWVRQPPGKGLEWIGEIYHSGSTNYNPSLKSRVTISVDKSKNQFSLKLSSVTAADTAVYYCARAHSRYYYGLDYWGQGTLVTVSS VL: not shown |
| 0.073 | 0.987 | Humanized antibody FS002-C216 (antibody, human IgG1, kappa, V domains shown, IgG1 heavy chain, kappa light chain) VH: not shown VL: EIVLTQSPATLSLSPGERATLSCRASQSVSSYLAWYQQKPGQAPRLLIYDASNRATGIPARFSGSGSGTDFTLTISSLEPEDFAVYYCQQRTNWLMYTFGQGTKLEIKR |
| 0.029 | 0.653 | Humanized antibody FS002-A1 (antibody, V domains shown, IgG1 heavy chain, kappa light chain; expressed in ExpiCHO-s cells, Protein A purified) VH: QVQLVQSGAEVKKPGASVKVSCKASGYTFTSYYMHWVRQAPGQGLEWMGIINPSGGSTSYAQKFQGRVTMTRDTSTSTVYMELSSLRSEDTAVYYCARDISGSYQTDAFDIWGQGTMVTVSS VL: not shown |
| 0.156 | 68.4 | Humanized antibody FS002-C417 (antibody, human IgG1, kappa, V domains shown, IgG1 heavy chain, kappa light chain) VH: EVQLVESGGVVVQPGGSLRLSCAASGFTFDDYTMHWVRQAPGKGLEWVSLISWDGGSTYYADSVKGRFTISRDNAKNTLYLQMNSLRAEDTAVYYCARDTGYAMDVWGQGTMVTVSS VL: NIQMTQSPSSLSASVGDRVTITCRASQSISSYLNWYQQKPGKAPKLLIYAASSLQSGVPSRFSGSGSGTDFTLTISSLQPEDFASYYCQQSYSSWAFGQGTKVEIKR |
| 0.073 | 2.17 | Humanized antibody FS002-C375 (antibody, human IgG1, kappa, V domains shown, IgG1 heavy chain, kappa light chain) VH: QVQLQESGPGLVKPSQTLSLTCTVSGGSISSGGYYWSWIRQHPGKGLEWIGYIYYSGSTYYNPSLKSRVTISVDTSKNQFSLKLSSVTAADTAVYYCARVGVALHYGMDVWGQGTTVTVSS VL: EIVLTQSPATLSLSPGERATLSCRASQSVSSYLAWYQQKPGQAPRLLIYDASNRATGIPARFSGSGSGTDFTLTISSLEPEDFAVYYCQQRSNWPLTFGGGTKVEIKR |
| 0.279 | 9.48 | Humanized antibody FS002-C58 (antibody, human IgG1, kappa, V domains shown, IgG1 heavy chain, kappa light chain) VH: EVQLLESGGGVVQPGRSLRLSCAASGFTFSSYAMHWVRQAPGKGLEWVAVISYDGSNKYYADSVKGRFTISRDNSKNTLYLQMNSLRAEDTAVYYCARGKYNWFDPWGQGTLVTVSS VL: EIVLTQSPATLSLSPGERATLSCRASQSVYSSLAWYQQKPGQAPKLLIYDASNRATGVPARFSGSGSGTDFTLTISSLEPEDFALYYCQHRQHWPLTFGGGTKVEIKR |
| 0.022 | 0.793 | Humanized antibody FS002-A36 (antibody, human IgG1, kappa, V domains shown, IgG1 heavy chain, kappa light chain) VH: QVQLQESGPGLVKPSQTLSLTCTVSGGSISSGGYYWSWIRQHPGKGLEWIGYIYYSGSTYYNPSLKSRVTISVDTSKNQFSLKLSSVTAADTAVYYCARVRLLGGGFDIWGQGTTVTVSS VL: EIVLTQSPATLSLSPGERATLSCRASQSVSTYLAWYQQKPGQAPRLLIYDTSIRATGIPARFSGSGSGTDFTLTISSLEPEDFAVYYCQQRSNWPLTFGGGTKVEIKR |
| 0.021 | 1.13 | Humanized antibody FS002-A10 (antibody, human IgG1, kappa, V domains shown, IgG1 heavy chain, kappa light chain) VH: QVQLQQSGPGLVKPSQTLSLTCAISGDSVSSDSAAWNWIRQSPSRGLEWLGRTYYRSKWYNDYAVSVKSRITINPDTSKNQFSLQLNSVTSDDTAVYYCARGSWAAPWLWGQGTLVTVSS VL: NIQLTQSPPFLSASVGDRVTITCRASQDISSFLAWYQQKPGKAPNLLIHAATTLQSGVPSRFSGSGSGTEFTLTISSLRPEDFATYYCQQLHTYPITFGQGTRLEIKR |
